Results as given in PMC4769027 (Journal of structural biology, 2016).

Biological target: wild-type IgG1 Fc (human, UniProt P01857 108-328 = IgG part, N-linked glycan at Asn297)
Assay: SPR

| Kd | Binder |
| --- | --- |
| 4.49 µM | FcγRIIa H131 variant ectodomain (receptor, human, UniProt P12318 34-211, looked up) QAAAPPKAVLKLEPPWINVLQEDSVTLTCQGARSPESDSIQWFHNGNLIPTHTQPSYRFKANNNDSGEYTCQTGQTSLSDPVHLTVLSEWLVLQTPHLEFQEGETIMLRCHSWKDKPLVKVTFFQNGKSQKFSHLDPTFSIPQANHSHSGDYHCTGNIGYTLFSSKPVTITVQVPSMG |
| 9.28 µM | FcγRIIb ectodomain (receptor, human, UniProt P31994 43-217, looked up) TPAAPPKAVLKLEPQWINVLQEDSVTLTCRGTHSPESDSIQWFHNGNLIPTHTQPSYRFKANNNDSGEYTCQTGQTSLSDPVHLTVLSEWLVLQTPHLEFQEGETIVLRCHSWKDKPLVKVTFFQNGKSKKFSRSDPNFSIPQANHSHSGDYHCTGNIGYTLYSSKPVTITVQAP |
